Data taken from US6774212 (Bristol-Myers Squibb, dated 2004).
Square brackets hold non-standard residues; d marks the D form. Ends that are not written are not given here. * marks the point of attachment. boroAlg = alpha-aminoboronic acid analogue of L-2-amino-4-pentenoic acid (1-amino-3-butenylboronic acid, -B(OH)2 in place of -COOH), C=CC[C@H](N*)B(O)O

Target: T1, HCV NS3 protease catalytic domain (amino acids 1 to 192), genotype 1a (Hepatitis C virus, genotype 1a, UniProt P26664 1027-1218)
T1 construct: domain: NS3 protease catalytic domain (amino acids 1 to 192); Expressed in E. coli BL21(DE3) and purified to >95%; also called HCV NS3 1a protease; Hepatitis C Virus NS3 protease
T1 sequence (P26664 1027-1218): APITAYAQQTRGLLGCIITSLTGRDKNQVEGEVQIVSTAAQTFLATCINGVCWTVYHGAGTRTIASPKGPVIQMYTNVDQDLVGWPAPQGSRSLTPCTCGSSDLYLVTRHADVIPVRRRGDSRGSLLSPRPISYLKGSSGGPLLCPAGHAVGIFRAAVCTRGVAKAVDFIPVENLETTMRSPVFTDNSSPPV
Assay: active-site titration of NS3 protease; linear plots of Activity vs. [inhibitor], protease concentration from the x-intercept

B1: H-Asp-Glu-Val-Val-Pro-boroAlg-OH (peptide)
peptide: H-DEVVP[boroAlg]
notes: Peptide boronic acid used as titrant to determine the protease concentration
B1: binds.
